According to patent US20260265412A1:

What was measured:
[1] = target: MASP3 in Factor D depleted human plasma (human) (UniProt P48740); experiment: cell-based or functional assay
[2] = target: human MASP3-His (human) (UniProt P48740); experiment: cell-based or functional assay
human MASP3-His (human), sequence (P48740 other isoform, or with tags, fused parts or gaps): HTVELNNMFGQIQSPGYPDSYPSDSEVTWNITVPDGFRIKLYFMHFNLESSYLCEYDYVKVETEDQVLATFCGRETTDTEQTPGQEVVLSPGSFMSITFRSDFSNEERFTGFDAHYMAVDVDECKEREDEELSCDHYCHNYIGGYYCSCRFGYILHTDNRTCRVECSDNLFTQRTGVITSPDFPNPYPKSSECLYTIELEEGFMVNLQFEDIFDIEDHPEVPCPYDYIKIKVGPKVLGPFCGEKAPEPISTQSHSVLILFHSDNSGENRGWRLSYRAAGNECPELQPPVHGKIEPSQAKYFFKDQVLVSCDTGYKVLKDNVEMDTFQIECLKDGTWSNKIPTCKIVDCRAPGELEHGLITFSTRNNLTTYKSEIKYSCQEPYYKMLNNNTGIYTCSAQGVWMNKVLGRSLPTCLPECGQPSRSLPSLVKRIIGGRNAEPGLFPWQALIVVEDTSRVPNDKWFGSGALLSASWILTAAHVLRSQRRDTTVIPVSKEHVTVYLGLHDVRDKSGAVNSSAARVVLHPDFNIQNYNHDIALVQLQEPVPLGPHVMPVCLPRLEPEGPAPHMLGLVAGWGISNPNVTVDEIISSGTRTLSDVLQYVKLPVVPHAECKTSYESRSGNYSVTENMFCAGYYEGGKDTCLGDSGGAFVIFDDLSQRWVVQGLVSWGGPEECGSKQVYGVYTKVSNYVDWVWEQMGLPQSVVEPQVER

MASP3 in Factor D depleted human plasma (human), sequence (P48740 other isoform, or with tags, fused parts or gaps): as above

OMS906 (antibody)
Inhibit Hemolysis IC50 (alternative pathway, rabbit or guinea pig red blood cells) [1]: 0.013 µM | Inhibit hemolysis IC50 (alternative pathway) [1]: 0.0171 µM | IC50 of inhibition of MASP3 enzymatic activity (cleavage of fluorescent tripeptide Boc-Val-Pro-Arg-AMC) [2]: 0.2 µM
